From article PMC7725785 (2020)
Like-named read-outs stand apart in the source and are kept apart here. Where no end group is shown, it is not given here. [ ]: non-standard residue; d: D form.

Key:
Test in all cases: SPR
GST-tagged TRIB3 [1] = molecular target: T1, GST-tagged TRIB3 (human, UniProt Q96RU7 1-358)
T1 chain: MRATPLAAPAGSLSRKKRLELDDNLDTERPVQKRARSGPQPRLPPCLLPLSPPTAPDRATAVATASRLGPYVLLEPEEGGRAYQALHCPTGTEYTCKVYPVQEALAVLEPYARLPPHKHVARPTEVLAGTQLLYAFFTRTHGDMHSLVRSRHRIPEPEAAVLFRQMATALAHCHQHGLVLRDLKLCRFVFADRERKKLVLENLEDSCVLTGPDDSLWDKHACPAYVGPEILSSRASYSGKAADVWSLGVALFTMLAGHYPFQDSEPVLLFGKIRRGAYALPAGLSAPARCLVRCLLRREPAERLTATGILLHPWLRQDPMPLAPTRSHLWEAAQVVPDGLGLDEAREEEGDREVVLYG

GST-tagged TRIB3 [2] = molecular target: T1, GST-tagged TRIB3
MAX protein (SPR) [3] = molecular target: T2, MAX protein (SPR) (human, UniProt P61244 1-160)
MAX protein (SPR) [4] = molecular target: T2, MAX protein (SPR); remark: listed apart in the source
GST-tagged TRIB3 [5] = molecular target: T1, GST-tagged TRIB3

T2 sequence (P61244 whole entry): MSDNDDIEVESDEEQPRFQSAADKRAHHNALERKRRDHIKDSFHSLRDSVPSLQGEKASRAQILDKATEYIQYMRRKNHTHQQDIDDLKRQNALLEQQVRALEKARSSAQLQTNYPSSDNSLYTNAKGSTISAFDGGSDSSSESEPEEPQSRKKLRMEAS

[dK][dV][dV][dI][dL][dK][dK][dA][dT][dA][dY][dI][dL][dS][dV] [CM2 peptide]
koff (GST-tagged TRIB3 [1]): 0.0166 s⁻¹ | Kd (GST-tagged TRIB3 [2]): 8.17 µM

[dK][dR][dR][dE][dQ][dL][dK][dH][dK][dL][dE][dQ][dL][dR] [CM4 peptide]
koff (MAX protein (SPR) [3]): 0.0417 s⁻¹ | Kd (MAX protein (SPR) [4]): 12.8 µM | koff (GST-tagged TRIB3 [5]): 0.0769 s⁻¹

[dE][dR][dQ][dR][dR][dN][dE][dL][dK][dR][dS][dF][dF][dA][dL][dR] [CM1 peptide]
koff (MAX protein (SPR) [3]): 0.0099 s⁻¹ | koff (GST-tagged TRIB3 [1]): 0.00531 s⁻¹ | Kd (MAX protein (SPR) [4]): 0.897 µM | Kd (GST-tagged TRIB3 [2]): 3.4 µM

[dQ][dA][dE][dE][dQ][dK][dL][dI][dS][dE][dE][dD][dL][dL][dR] [CM3 peptide]
koff (GST-tagged TRIB3 [1]): 0.000434 s⁻¹ | Kd (GST-tagged TRIB3 [2]): 0.707 µM
